According to patent US7951572B2, “Construction of gold nanoparticle-based peptide chip, and assaying enzyme activity and inhibitor effect using secondary ion mass spectrometric analysis thereof” (Korea Advanced Institute of Science and Technology, priority 2006, dated 2011):

Assays:
[1] = tested on: T1, Ac-IYAAPKKGGGGC (SEQ ID NO: 8)
T1 sequence: IYAAPKKGGGGC

[2] = tested on: T2, Ac-LRRASLGGGGC (SEQ ID NO: 9)
T2 sequence: LRRASLGGGGC

PKA kinase = PKA kinase (Homo sapiens, UniProt P17612); assay: Quantitative analysis of inhibitory reaction against kinase on gold nanoparticle-peptide chip by secondary ion mass spectrometry; format: biochemical; details: ATP 10 μM, kinase 1 U, 30° C. for 2 hours, non-linear regression
Description: As one example for analyzing an inhibitory reaction against kinase activity, the effect of 4-cyano-3-methylisoquinoline (CMIQ, Sigma), an inhibitor against PKA kinase, was illustrated.
After silicon rubber having circular holes (3 mm diameter and 1 mm height) was attached to the surface of a slide glass (75×25 mm) consisting of a glass substrate, a gold nanoparticle-peptide chip was constructed in each of the holes according to the method of Examples 1-(3).
CMIQ was dissolved in a minimum amount of distilled water to prepare solutions having varying CMIP concentrations of 0.1 nM, 0.5 nM, 1 nM, 5 nM, 10 nM, 50 nM, 100 nM, 500 nM, 1 μM and 5 μM, and each of the solutions was mixed with kinase, was introduced into the gold nanoparticle-peptide chip formed in the holes and was allowed to react at 30° C. for 2 hours. In this reaction, the concentration of ATP was 10 μM, and the concentration of kinase used was 1 U. Since the amount of the peptide attached to the surface would generally be constant, the ATP and kinase concentrations were determined as concentrations at which the maximum enzyme reaction occurred.
The choice of the peaks before and after phosphorylation is not limited thereto, and peaks changed by phosphorylation as shown in FIG. 2 may all be applied. […]
More specifically, the values of Ap1 and Ap2 in the two reference samples, that is, the gold nanoparticle-peptide chip before treatment with kinase and the gold nanoparticle-peptide chip after phosphorylation, would be different depending on the intensity of ions. Thus, to correct this difference, percent phosphorylation was calculated according to the following equation 1: […]
In order to calculate percent inhibition, substitution from the percent phosphorylation value calculated in the equation 1 is made. […] More specifically, after the phosphorylation level at each concentration of the inhibitor is calculated, percent inhibition can be calculated according to the following equation 2: […]

| n (exponent of equation 3) (PKA kinase) | IC50 (PKA kinase; equation 3) [nM] | Imax (percent inhibition at which the maximum inhibitory effect of the inhibitor occurs) (PKA kinase; equation 3) [%] | Compound | SIMS chemical imaging of the phosphorylated peptide ion on microarray spots (2 nM Abl, 100 uM ATP) [1] | change of the peptide mass peak (SIMS) on a chip carrying both peptides [1] | phosphorylation of the chip-bound peptide, seen as a mass change in secondary ion mass spectrometry [1] | SIMS chemical imaging of the phosphorylated peptide ion on microarray spots [2] | change of the peptide mass peak (SIMS) on a chip carrying both peptides [2] | SIMS chemical imaging of the phosphorylated peptide ion on microarray spots [1] | SIMS chemical imaging of the phosphorylated peptide ion on microarray spots (50 nM PKA, 100 uM ATP) [2] |
| --- | --- | --- | --- | --- | --- | --- | --- | --- | --- | --- |
|  |  |  | Abl kinase (Calbiochem) | kinase-treated spots (line 1 and 2) yielded strong ion mass images (i.e. [PAblH-SH-COOH+HPO3]+ or [PPKAH-SH-COOH+HPO3]+) | only the mass signals of peptides specific for the kinases were changed | the phosphorylation of the peptide occurred | No cross-images of kinases against opposite peptides were observed | the AbI kinase and the PKA kinase did not influence the mass peaks of other peptides |  |  |
|  |  |  | PKA kinase |  | the AbI kinase and the PKA kinase did not influence the mass peaks of other peptides |  |  | only the mass signals of peptides specific for the kinases were changed | No cross-images of kinases against opposite peptides were observed | kinase-treated spots (line 1 and 2) yielded strong ion mass images (i.e. [PAblH-SH-COOH+HPO3]+ or [PPKAH-SH-COOH+HPO3]+) |
| 0.9996 | ~87 | 100 | Cc1ncc2ccccc2c1C#N [CMIQ, 4-cyano-3-methylisoquinoline] |  |  |  |  |  |  |  |
